Test results published in the nanobody polyreactivity screen of Harvey et al. (2022).

Assay: yeast display, Sf9 membrane polyspecificity reagent, FACS + sequencing; frameworks hold sequencing errors
Method in brief: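 Polyreactivity labels are assigned by the sorting gate from which each nanobody was recovered. The gates were low and high (top ~1%), set on anti-HA fluorescence for expression and streptavidin fluorescence for reagent binding. Before sorting, galactose-induced (36–48 hours) yeast display cells were stained for 1 hour at 4 °C with 10% biotinylated, detergent-solubilized Sf9 membrane reagent.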

Sequence	polyreactivity (PSR sort gate)
QVQLVESGGGLVQAGGSLRLSCGASGFTFQNYAMGWYRQARGKERELVAAIDSRGGRTYYADSVKGRFTISRDNAKNTVYLQMNSLKPEDTSVYYCAVAENKRCGAVGYYYWGQGTQVTVSS	low polyreactivity
QVQLVESGGGLVQAGGSLRLSCGASGGIFIFYAMGWYRHAPGKERELVAAISNVSSTNYADSVKGRFTISRDNAKHTVYLEMNSLKPEDTAVYYCNAVGVPSEYYSWGQGTQVTVSS	low polyreactivity
QVQLVESGGGLVQAGGSLRLSCGASGGTFVSNAMGWYRQAPGKERELVAAITSGCNTTYADSVKGRFTISRDNAKNTVYLQMNSLKPEDTAVYYCATDFEGSWIDARGTWYYVWFGYWGQGTQVTVSS	low polyreactivity
QVQLVESGGGLVQAGGSLRLSCGASGRIFATNAMGWYRQAPGKERELVATITRSAGRTYYADSVKGRFTISRDNAKNTVYLQMNSLIPEDTAVYYCAASYLDSEPGYREYDYWGQGTQVTVSS	low polyreactivity
QVQLVESGGGLVQAGGSLRLSCGASGRIFGYNAMGWYRQARGKERELVAAITTSGGSTYYADSVKGRFTLSRDNEKNTVYFQMNSLKQEDTAVYYCARDSLQVFYPYASDDYWGLGTQVTVSS	low polyreactivity
QVQLVESGGGLVQAGGSLRLSCGASGRTFGHYDLGLYRQEPGTEREFVANIRQSTGSTDYADSVKGRFTISRDNAKITVYLQMNSLKPEDTEVYYCASPWYYYVEHRQGSYILDYWGQGTQVTVSS	low polyreactivity
QVQLVESGGGLVQAGGSLRLSCGASGRTFRKYAMGWYRQAPGKERELVASITYSGGSTYYADSVKGRFTISRDNAKNTVYLQMNSLKPEDTAVYYCAARLHWNRYPQTLYDYWGLGTQVTVSS	high polyreactivity
QVQLVESGGGLVQAGGSLRLSCGASGRTFRRYAIGWYRQAPGKERELVATITSNGGSTYYADSVKGRFTISRDNAKNTVDLQLNSLTPEDTAVYYCARDLTYYRSRYDYWGQGTQVTVSS	high polyreactivity
QVQLVESGGGLVQAGGSLRLSCGASGRTFYSYAMGWYRQEHGKERELVATITNGDTTNYADSVKGRFTISRDNAKNTVYLQMNSLKQEDTAVYYCAKDISPGYDEYDYWGQGTQVTVSS	low polyreactivity
QVQLVESGGGLVQAGGSLRLSCGASGSIFRYYTMGWYRQAPGKERELVAAISRSGGSTYYADSVKGRFTISRDNAKNTVYLQMNRLKPEDTAVYYCAARSGYIYEYWGQGTQVTVSS	high polyreactivity
QVQLVESGGGLVQAGGSLRLSCGASGSTFIYYVMGWYRQAPGKEREWVASISTGGRTYYADSVKGRFTSSRDNANHPVYVQMHSLKPEETAVDSCAGAIRSFRRPALYYWGQGTQVTVSS	high polyreactivity
QVQLVESGGGLVQAGGSLRLSCGASGSTFWYYAMGWYRPAPGKERELVAAISSRGGSTYYADSVKGRFTISRDKAKNTVYFQLNSLKPEDTAVYYCAILGSYGGGQRRKYDSWGQGTQVTVSS	high polyreactivity
QVQLVESGGGLVQAGGSLRLSCPACGRTFNRYAMGWYRQAPGKERELVATISNSGRTYYADSVKGRFTISRDNAKNTVYLQMNSLKPEDTAVYYCAAQLPSYYKYPRHDYWGKGTQVTVSS	high polyreactivity
QVQLVESGGGLVQAGGSLRLSCPASGFIFRYYAMGWYRQAPGKERELVAAISWSGGSTNYADSVKGRFTISRDNAQNTVYLQINSLKPEDTALSYCADDGTVRSWGRYYHWGQGTQVTVSS	low polyreactivity
QVQLVESGGGLVQAGGSLRLSCPASGFTLHSYAMGWYRQAPGKERELVAAITRSGGGTYYADSVKGRFTISRDNAKNTVYLQMNSLKPEDTAVYYCAARFGGQYQHDYWGQGTQVTVSS	high polyreactivity
QVQLVESGGGLVQAGGSLRLSCPASGGNFPFNGMGWSRQAPGKERELVAAISSGGRTYYADSVKGRFTISRDNAKNTVYLQMNSLKPEDTAVYYCAARTSRYYYYPYAFYWGQGTQVTVSS	high polyreactivity

Sequence	polyreactivity (PSR sort gate)
QVQLVESGGGLVQAGGSLRLSCPASGLIFNSYAMGWYRQARGTERELVAAISRHGGITYYADSVKGRFTISRDHAKNTVYLQMNSLKPEDTAVYYCNADSSRRRYSSDYWGQGTQVTVSS	high polyreactivity
QVQLVESGGGLVQAGGSLRLSCPASGRIFHRNTMGWYRPAPGKERELVAAIRSGSRTYYADSVKGRFTISRDNAKNTVYLQMNSLKPEDKAVYYCATTYGSPRYDYWGQGTQVTVSS	high polyreactivity
QVQLVESGGGLVQAGGSLRLSCPASGRIFQLYAMGWYRQAPGKERELVAAIRYSGDSTYYADSVKGRLTISRDNAKNTVYLQLNSLKPEDTAVYYCAARSRYGYRNKYEYWGQGTQVTVSS	high polyreactivity
QVQLVESGGGLVQAGGSLRLSCPASGRTFGDYAMGWYRQAPGKERELVAAISSSGGRTYYADSVKGRFTISRDNAKNTVYLQMNSLKPEDTAVYYCAAQSKYYQYYSWGQGTQVTVSS	high polyreactivity
QVQLVESGGGLVQAGGSLRLSCPASGRTFGIYAMGWYRQAHGKERELVAAITWSGDSTYYADSVKGRFTISRDNAKNTVYLQMNSLKPEDTAVYYCAADYVGVTSVRYDYWGQGTQVTVSS	low polyreactivity
QVQLVESGGGLVQAGGSLRLSCPASGRTFQVYAMGWYRQAPGKERELVAGITRAGSTYYADSVKGRFTISRDNAKNTVYLQMISLKPEDTAVYYCAAGWKSSYYIWRYGSWGQGTQVTVSS	high polyreactivity
QVQLVESGGGLVQAGGSLRLSCPASGRTFVVYAMGWYRQAPGKEREFVAAITTRGNSTYYADSVKGRFTISRDNAKNTVYLQMNSLKPEDTAVYYCAAVLRLSTLTTDFGYWGQGTQVTVSS	high polyreactivity
QVQLVESGGGLVQAGGSLRLSCPASGRTFYGYPMGWYRQAPGKERELVAAISRRGGSTNYADSVKGRFTISRDHAKNTVYLQMNSRKPEDTAVYSCNANYYRTHYDYWGQGTQVTVSS	high polyreactivity
QVQLVESGGGLVQAGGSLRLSCPASGSIFSAYAMGWYRQAPGNEREFVAAITRRGGNTYYADSVKGRFTISRDNAKNTVYLQMNSLKPEDTAVYYCAAIRRQKGLWDYYYWGQGTQVTVSS	low polyreactivity
QVQLVESGGGLVQAGGSLRLSCPASGSIFWPNAMGWYRQAPGKERELVASINSGSGSTYYADSVKGRFTISRDNAKNTVYLQMNSLKPEDTAVYYCNAAGAYPYYSEDYYWGQGTQVTVSS	low polyreactivity
QVQLVESGGGLVQAGGSLRLSCPASGSIFYYYAMGWYRQEPGKERELVATITWNGAGTFYADSVKGRFTISRDNAKNTVYLQMNSLKPEDTAVYYCAASWYGESGYDYWGQGSQVTVSS	low polyreactivity
QVQLVESGGGLVQAGGSLRLSCPASGSTFGPYAMGWYRQAPGKERELVAAISSTGGSTYYADSVKGRFTISRDNAKNTVYLQMNSLKPEDTAVYYCAAYSTYARGYWGQGTQVTVSS	high polyreactivity
QVQLVESGGGLVQAGGSLRLSCPASGSTFSYNMGWYRPAPGKERELVAAISGSGGSTYADSVKGRFTISRDNAKKTVYLQMNSLKPEDTAVYYCATVRYWVHEYGFWGLGTQVTVSS	high polyreactivity
QVQLVESGGGLVQAGGSLRLSCPASGSTFTLYVMGWYRPAPGKERELVAAISSNGGRTYYADSVKGRFTISRDNAKNTVYLQMNSLKPEDTAVYDCAAGKIGRYHYDYWGQGTQVTVSS	high polyreactivity
QVQLVESGGGLVQAGGSLRLSCPASGSTFWYYAMGWYRQAPGKERELVAAITRGGSTNYADSVKGRFTISRDNAKNTVYLQMNSLKPEDTAVYYCAKDGPQYRYYYWGQGTQVTVSS	high polyreactivity
QVQLVESGGGLVQAGGSLRLSCPASGSTIDPNARGWYRQAPGNERELVAAISYTGGRTYYADSVKGRFTISRDNAKNTVYLQMNSLKPEDTAVYYCAVLVVGATTQDEPYFSGVEHDYWGQGTQVTVSS	low polyreactivity
